# Positions count from the first letter of the chain named.
# B1: m36.4 (VHH)
# VHH: QVQLVQSGGGLVQPGGSLRLSCAASAFDFSDYEMSWVREAPGKGLEWIGEINDSGNTIYNPSLKSRVTISRDNSKNTLYLQMNTLRAEDTAIYYCAIYGGNSGGEYWGQGTLVTVSS
# notes: eAd, mutant of m36; also called m36.4 eAd
# B2: m36.2 (VHH)
# VHH: B1 VHH with V12I, E39Q, A40D, S54R
# notes: eAd, mutant of m36 selected from a phage library
# B3: m36.5 (VHH)
# VHH: B1 VHH with R86S
# notes: as for B2
# B4: m36.1 (VHH)
# VHH: B1 VHH with A26T, S65N
# notes: as for B2
# Biological target: T1, gp120Bal-CD4
# T1 construct: also called 120Bal-CD4 complex
# Assay: ELISA, OD 450 nm
row,Binder,EC50 (read off the curve)
1,B1,~1 nM
2,B2,~2 nM
3,B3,~1 nM
4,B4,~1 nM

# Reference: US20130108636A1 (US Dept. of Health and Human Services, published 2013)
